Laboratory results published in US20160039913A1 (LFB USA, published 2016).

Key:
Experiment in all cases: cell-based or functional assay
HIV-1 93MW960 gp120 [1] = target: T1, HIV-1 93MW960 gp120 (HIV-1, isolate 93MW960)
HIV-1 BaL gp120 [2] = target: T2, HIV-1 BaL gp120 (HIV-1, isolate BaL)
HIV-1 89.6 gp120 [3] = target: T3, HIV-1 89.6 gp120 (HIV-1, isolate 89.6, UniProt Q73372 32-508)
HIV-1 JR-FL gp120 [4] = target: T4, HIV-1 JR-FL gp120 (HIV-1, isolate JR-FL)
HIV-1 SF162 gp120 [5] = target: T5, HIV-1 SF162 gp120 (HIV-1, isolate SF162, UniProt P19550 32-502)
HIV-1 JR-FL gp120 [6] = target: T4, HIV-1 JR-FL gp120; remark: listed apart in the source
HIV-1 67970 gp120 = HIV-1 67970 gp120 (HIV-1, isolate 67970)
HIV-1 93MW960 gp120 [7] = target: T1, HIV-1 93MW960 gp120; remark: listed apart in the source
HIV-1 BaL gp120 [8] = target: T2, HIV-1 BaL gp120; remark: listed apart in the source
HIV-1 89.6 gp120 [9] = target: T3, HIV-1 89.6 gp120; remark: listed apart in the source
HIV-1 JR-FL gp120 [10] = target: T4, HIV-1 JR-FL gp120; remark: listed apart in the source
HIV-1 SF162 gp120 [11] = target: T5, HIV-1 SF162 gp120; remark: listed apart in the source
HIV-1 89.6 gp120 [12] = target: T3, HIV-1 89.6 gp120; design: unit not given beside the values
HIV-1 SF162 gp120 [13] = target: T5, HIV-1 SF162 gp120; design: unit not given beside the values

B1: F425-A1g8 IgA1 antibody variant (antibody)
heavy: QEQLVESGGGVVQPGRSLRLSCEASGFIFSAFVLHWVRQAPGKGLEWVAVVWYDGNSKYYADSVKGRFTISRDTSQNTLHLQMDSLRPEDTAVYYCAREWVADDDTFDGFDVWGQGTMVTVSSASLTSPKVFPLSLCSTQPDGNVVIACLVQGFFPQEPLSVTWSESGQGVTARNFPPSQDASGDLYTTSSQLTLPATQCLAGKSVTCHVKHYTNPSQDVTVPCPVPSTPPTPSPSTPPTPSPSCCHPRLSLHRPALEDLLLGSEANLTCTLTGLRDASGVTFTWTPSSGKSAVQGPPDRDLCGCYSVSSVLSGCAEPWNHGKTFTCTAAYPESKTPLTATLSKSGNTFRPEVHLLPPPSEELALNELVTLTCLARGFSPKDVLVRWLQGSQELPREKYLTWASRQEPSQGTTTFAVTSILRVAAEDWKKGDTFSCMVGHEALPLAFTQKTIDRLAGKPTHVNVSVVMAEVDGTCY
light: not shown
**Q.** B1 was tested. Which “IC50, ADCVI with neutrophils, 93MW960-infected PBMC” value (HIV-1 93MW960 gp120 [1]) did it give?
**A.** 18.3 µg/mL

**Q.** What about the “IC50, ADCVI with neutrophils, BaL-infected PBMC” value (HIV-1 BaL gp120 [2]) of the same binder?
**A.** > 40 µg/mL

**Q.** What about the “IC50, ADCVI with neutrophils, 89.6-infected PBMC” value (HIV-1 89.6 gp120 [3]) of the same binder?
**A.** > 40 µg/mL

**Q.** What about the “IC50, ADCVI with neutrophils, JR-FL-infected PBMC” value (HIV-1 JR-FL gp120 [4]) of the same binder?
**A.** 16.6 µg/mL

**Q.** And the “IC50, ADCVI with neutrophils, SF162-infected PBMC” value (HIV-1 SF162 gp120 [5])?
**A.** 6.1 µg/mL

**Q.** What about the “IC50, neutralization of HIV-1 JR-FL (TZM-bl cells, no sCD4)” value (HIV-1 JR-FL gp120 [6]) of the same binder?
**A.** 1.73 µg/mL

**Q.** What about the “IC50, neutralization of HIV-1 67970 (TZM-bl cells, no sCD4)” value (HIV-1 67970 gp120) of the same binder?
**A.** 23.3 µg/mL

B2: b12 IgA2 purified from CHO cells (antibody, V domains shown)
VH: QVQLVQSGAEVKKPGASVKVSCQASGYRFSNFVIHWVRQAPGQRFEWMGWINPYNGNKEFSAKFQDRVTFTADTSANTAYMELRSLRSADTAVYYCARVGPYSWDDSPQDNYYMDVWGQGTTVIVSS
VL: EIVLTQAPGTLSLSPGERATFSCRSSHSIRSRRVAWYQHKPGQAPRLVIHGVSNRASGISDRFSGSGSGTDFTLTITRVEPEDFALYYCQVYGASSYTFGQGTKLERKR
**Q.** With B2 as the binder, how does the “IC50, ADCVI assay with PMN (+ PMN), 93MW960-infected PBMC” value (HIV-1 93MW960 gp120 [7]) read?
**A.** 10 µg/mL

**Q.** What about the “IC50, ADCVI assay without PMN (- PMN), 93MW960-infected PBMC” value (HIV-1 93MW960 gp120 [7]) of the same binder?
**A.** > 20 µg/mL

**Q.** What about the “IC50, ADCVI assay with PMN (+ PMN), BaL-infected PBMC” value (HIV-1 BaL gp120 [8]) of the same binder?
**A.** 2.1 µg/mL

**Q.** What about the “IC50, ADCVI assay without PMN (- PMN), BaL-infected PBMC” value (HIV-1 BaL gp120 [8]) of the same binder?
**A.** > 20 µg/mL

**Q.** What about the “IC50, ADCVI assay with PMN (+ PMN), 89.6-infected PBMC” value (HIV-1 89.6 gp120 [9]) of the same binder?
**A.** 14.5 µg/mL

**Q.** And the “IC50, ADCVI assay without PMN (- PMN), 89.6-infected PBMC” value (HIV-1 89.6 gp120 [9])?
**A.** > 20 µg/mL

**Q.** And the “IC50, ADCVI assay with PMN (+ PMN), JR-FL-infected PBMC” value (HIV-1 JR-FL gp120 [10])?
**A.** > 20 µg/mL

**Q.** And the “IC50, ADCVI assay without PMN (- PMN), JR-FL-infected PBMC” value (HIV-1 JR-FL gp120 [10])?
**A.** > 20 µg/mL

**Q.** What about the “IC50, ADCVI assay with PMN (+ PMN), SF162-infected PBMC” value (HIV-1 SF162 gp120 [11]) of the same binder?
**A.** 0.3 µg/mL

**Q.** What about the “IC50, ADCVI assay without PMN (- PMN), SF162-infected PBMC” value (HIV-1 SF162 gp120 [11]) of the same binder?
**A.** 9.5 µg/mL

**Q.** And the “IC90, neutralization of HIV 89.6 (TZM-bl assay)” value (HIV-1 89.6 gp120 [12])?
**A.** 6.75

**Q.** And the “IC90, neutralization of HIV SF162 (TZM-bl assay)” value (HIV-1 SF162 gp120 [13])?
**A.** 1.03

B3: b12 IgA2 expressed in milk (antibody, V domains shown)
VH: B2 VH
VL: B2 VL
**Q.** What does the source list for B3?
**A.** IC50, ADCVI assay with PMN (+ PMN), 93MW960-infected PBMC (HIV-1 93MW960 gp120 [7]): 3.3 µg/mL; IC50, ADCVI assay without PMN (- PMN), 93MW960-infected PBMC (HIV-1 93MW960 gp120 [7]): > 20 µg/mL; IC50, ADCVI assay with PMN (+ PMN), BaL-infected PBMC (HIV-1 BaL gp120 [8]): 2.3 µg/mL; IC50, ADCVI assay without PMN (- PMN), BaL-infected PBMC (HIV-1 BaL gp120 [8]): 19.3 µg/mL; IC50, ADCVI assay with PMN (+ PMN), 89.6-infected PBMC (HIV-1 89.6 gp120 [9]): 3.9 µg/mL; IC50, ADCVI assay without PMN (- PMN), 89.6-infected PBMC (HIV-1 89.6 gp120 [9]): 4.8 µg/mL; IC50, ADCVI assay without PMN (- PMN), JR-FL-infected PBMC (HIV-1 JR-FL gp120 [10]): 9.6 µg/mL; IC50, ADCVI assay with PMN (+ PMN), SF162-infected PBMC (HIV-1 SF162 gp120 [11]): 0.4 µg/mL; IC50, ADCVI assay without PMN (- PMN), SF162-infected PBMC (HIV-1 SF162 gp120 [11]): 6.6 µg/mL; IC90, neutralization of HIV 89.6 (TZM-bl assay) (HIV-1 89.6 gp120 [12]): 1.85; IC90, neutralization of HIV SF162 (TZM-bl assay) (HIV-1 SF162 gp120 [13]): 0.34

B4: b12 IgA2 purified from milk (antibody, V domains shown)
VH: B2 VH
VL: B2 VL
**Q.** What does the source list for B4?
**A.** IC50, ADCVI assay with PMN (+ PMN), 93MW960-infected PBMC (HIV-1 93MW960 gp120 [7]): 17.5 µg/mL; IC50, ADCVI assay without PMN (- PMN), 93MW960-infected PBMC (HIV-1 93MW960 gp120 [7]): > 20 µg/mL; IC50, ADCVI assay with PMN (+ PMN), BaL-infected PBMC (HIV-1 BaL gp120 [8]): 2.2 µg/mL; IC50, ADCVI assay without PMN (- PMN), BaL-infected PBMC (HIV-1 BaL gp120 [8]): 13.1 µg/mL; IC50, ADCVI assay with PMN (+ PMN), 89.6-infected PBMC (HIV-1 89.6 gp120 [9]): 17.1 µg/mL; IC50, ADCVI assay without PMN (- PMN), 89.6-infected PBMC (HIV-1 89.6 gp120 [9]): > 20 µg/mL; IC50, ADCVI assay with PMN (+ PMN), JR-FL-infected PBMC (HIV-1 JR-FL gp120 [10]): > 20 µg/mL; IC50, ADCVI assay without PMN (- PMN), JR-FL-infected PBMC (HIV-1 JR-FL gp120 [10]): > 20 µg/mL; IC50, ADCVI assay with PMN (+ PMN), SF162-infected PBMC (HIV-1 SF162 gp120 [11]): 0.3 µg/mL; IC50, ADCVI assay without PMN (- PMN), SF162-infected PBMC (HIV-1 SF162 gp120 [11]): 2.1 µg/mL; IC90, neutralization of HIV 89.6 (TZM-bl assay) (HIV-1 89.6 gp120 [12]): 8.37; IC90, neutralization of HIV SF162 (TZM-bl assay) (HIV-1 SF162 gp120 [13]): 0.79

B5: F425-A1g8 IgG1 antibody variant (antibody, V domains shown)
VH: QEQLVESGGGVVQPGRSLRLSCEASGFIFSAFVLHWVRQAPGKGLEWVAVVWYDGNSKYYADSVKGRFTISRDTSQNTLHLQMDSLRPEDTAVYYCAREWVADDDTFDGFDVWGQGTMVTVSS
VL: EIVLSQSPATLSLSPGERATLSCRASQSVTNSLAWYQQKPGQAPRLLIYDASNRATGIPARFSGSGSGTDFTLTISSLEPEDFAVYYCQQRSNWPPEVTFGPGTKVDIKR
**Q.** What does the source list for B5?
**A.** IC50, ADCVI with neutrophils, 93MW960-infected PBMC (HIV-1 93MW960 gp120 [1]): 9.5 µg/mL; IC50, ADCVI with neutrophils, BaL-infected PBMC (HIV-1 BaL gp120 [2]): > 40 µg/mL; IC50, ADCVI with neutrophils, 89.6-infected PBMC (HIV-1 89.6 gp120 [3]): > 40 µg/mL; IC50, ADCVI with neutrophils, JR-FL-infected PBMC (HIV-1 JR-FL gp120 [4]): > 40 µg/mL; IC50, ADCVI with neutrophils, SF162-infected PBMC (HIV-1 SF162 gp120 [5]): > 40 µg/mL; IC50, neutralization of HIV-1 JR-FL (TZM-bl cells, no sCD4) (HIV-1 JR-FL gp120 [6]): > 40 µg/mL; IC50, neutralization of HIV-1 67970 (TZM-bl cells, no sCD4) (HIV-1 67970 gp120): > 40 µg/mL
